Results: patent US20080102477

Molecular target: T1, BubR1 (amino acids 1-514) GST-fusion protein, O60566
T1 chain: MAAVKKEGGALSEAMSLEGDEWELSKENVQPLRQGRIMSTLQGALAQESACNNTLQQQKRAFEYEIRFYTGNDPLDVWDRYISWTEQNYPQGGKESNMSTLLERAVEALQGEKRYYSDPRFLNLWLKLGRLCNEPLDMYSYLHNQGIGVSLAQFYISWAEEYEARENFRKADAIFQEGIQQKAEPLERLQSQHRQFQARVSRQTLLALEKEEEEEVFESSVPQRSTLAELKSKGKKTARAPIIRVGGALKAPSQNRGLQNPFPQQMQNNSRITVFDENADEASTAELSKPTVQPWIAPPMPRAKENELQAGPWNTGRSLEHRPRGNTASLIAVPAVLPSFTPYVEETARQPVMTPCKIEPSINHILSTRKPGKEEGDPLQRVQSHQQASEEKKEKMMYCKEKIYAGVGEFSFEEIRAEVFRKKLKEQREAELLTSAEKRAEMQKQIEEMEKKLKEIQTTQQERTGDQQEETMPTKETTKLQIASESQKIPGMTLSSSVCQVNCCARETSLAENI

B1: PCAF (amino acids 352-832) GST-fusion protein (protein)
chain: MLEEEVYSQNSPIWDQDFLSASSRTSQLGIQTVINPPPVAGTISYNSTSSSLEQPNAGSSSPACKASSGLEANPGEKRKMTDSHVLEEAKKPRVMGDIPMELINEVMSTITDPAAMLGPETNFLSAHSARDEAARLEERRGVIEFHVVGNSLNQKPNKKILMWLVGLQNVFSHQLPRMPKEYITRLVFDPKHKTLALIKDGRVIGGICFRMFPSQGFTEIVFCAVTSNEQVKGYGTHLMNHLKEYHIKHDILNFLTYADEYAIGYFKKQGFSKEIKIPKTKYVGYIKDYEGATLMGCELNPRIPYTEFSVIIKKQKEIIKKLIERKQAQIRKVYPGLSCFKDGVRQIPIESIPGIRETGWKPSGKEKSKEPRDPDQLYSTLKSILQQVKSHQSAWPFMEPVKRTEAPGYYEVIRFPMDLKTMSERLKNRYYVSKKLFMADLQRVFTNCKEYNPPESEYYKCANILEKFFFSKIKEAGLIDK
in vitro acetylation assay (Western blot with anti-acetyl lysine antibodies; MALDI-MS and MS/MS of pepsin peptides): the appearance of a 42 Da acetylation peak in the presence of active PCAF (PCAF 352-832) confirmed that lysine 250 (K250) is the acetylation site of BubR1
